T1: human TNFR2 on the surface of CHO-TNFR2 cells (human, UniProt P20333 23-461)
T1 construct: whole, on cells
T1 sequence (looked up): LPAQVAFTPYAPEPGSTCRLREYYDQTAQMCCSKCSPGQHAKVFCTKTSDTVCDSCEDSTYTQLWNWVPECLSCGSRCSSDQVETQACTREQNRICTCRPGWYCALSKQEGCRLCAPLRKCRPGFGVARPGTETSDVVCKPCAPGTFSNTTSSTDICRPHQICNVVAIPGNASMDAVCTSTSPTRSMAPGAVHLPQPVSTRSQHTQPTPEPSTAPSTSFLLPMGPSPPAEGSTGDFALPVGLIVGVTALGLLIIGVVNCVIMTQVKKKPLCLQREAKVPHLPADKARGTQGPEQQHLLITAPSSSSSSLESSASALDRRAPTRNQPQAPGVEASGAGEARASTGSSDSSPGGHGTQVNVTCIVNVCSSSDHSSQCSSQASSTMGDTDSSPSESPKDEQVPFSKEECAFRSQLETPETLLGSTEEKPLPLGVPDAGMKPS

T2: human TNFR2 (Novoprotein, Cat #C830) (human, UniProt P20333 23-257, limits assumed)
T2 construct: construct not described; also called human TNFR2 protein
T2 sequence (looked up): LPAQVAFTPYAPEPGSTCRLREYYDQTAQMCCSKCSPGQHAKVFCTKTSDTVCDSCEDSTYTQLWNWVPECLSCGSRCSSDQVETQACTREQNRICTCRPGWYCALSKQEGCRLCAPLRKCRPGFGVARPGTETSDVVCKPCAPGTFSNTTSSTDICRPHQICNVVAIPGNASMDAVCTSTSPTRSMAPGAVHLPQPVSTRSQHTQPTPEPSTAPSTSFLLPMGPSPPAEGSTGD

T3: Human TNFR2-His (Sino 10417-H08H) (human, UniProt P20333 23-257)
T3 construct: Bought protein; also called recombinant human TNFR2 protein; not shown: His tag
T3 sequence (looked up): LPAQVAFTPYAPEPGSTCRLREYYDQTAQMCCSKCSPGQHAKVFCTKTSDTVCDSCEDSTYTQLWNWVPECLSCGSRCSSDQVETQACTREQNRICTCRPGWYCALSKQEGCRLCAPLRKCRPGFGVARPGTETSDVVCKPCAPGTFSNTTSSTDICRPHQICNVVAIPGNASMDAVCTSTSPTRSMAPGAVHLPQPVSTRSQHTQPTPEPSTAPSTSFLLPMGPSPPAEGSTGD


Key:
[1] = biological target: T1, human TNFR2 on the surface of CHO-TNFR2 …; experiment: competition flow cytometry on CHO-TNFR2 cells, competitor TNFα-biotin; AUC against 001-WT
Protocol: CHO stable cells highly expressing human TNFR2 were used for the experiment (the same as CHO-TNFR2 in Example 4). The CHO-TNFR2 cells were digested, washed twice with DPBS, then stained with Live/Dead (L/D) (20 minutes at room temperature), and plated at a density of 1×10⁵ cells/50 μl/well. A test anti-TNFR2 antibody was diluted to 6 μg/ml with a staining buffer as the starting concentration: the antibody was subjected to 3.33-fold gradient dilution, with a total of 7 concentration points. The diluted antibody was added to the plated cells at 50 μl/well, and the mixture was mixed well by gentle pipetting, and incubated at 4° C. for 30 minutes. Then the diluted 100 ng/ml of human TNFα-biotin was added at 100 μl/well, and the mixture was mixed well by gentle pipetting, and then incubated at 4° C. for 30 minutes. The mixture was washed twice with a staining buffer, and then 0.12 μg/ml PE-streptavidin (BioLegend, Cat #405204) was added at 100 μl/well; the resulting mixture was incubated at 4° C. for 30 minutes. The mixture was washed twice with a staining buffer, and then 150 μl of staining buffer was added to resuspend the cells; signals were detected by a flow cytometer (Thermo Attune NxT). The inhibitory curve of an antibody was drawn with antibody concentration as the abscissa and corresponding MFI value as the ordinate, and fitted with four parameters (GraphPad Prism9) to calculate the IC50 value. The smaller the IC50 value, the stronger the ability of an antibody to inhibit the binding of human TNFα to human TNFR2. The blocking effect of a humanized antibody was normalized to its corresponding human-murine chimeric WT antibody. The higher the percentage value, the better the inhibitory effect of the humanized antibody.

[2] = biological target: T2, human TNFR2 (Novoprotein, Cat #C830); experiment: competition ELISA, competitor human TNFα-Biotin; IC50 against 001-WT
Protocol: 1 μg/ml human TNFR2 (Novoprotein, Cat #C830) was pre-coated with 100 μl/well […] in an ELISA plate. All the test TNFR2 antibodies were subjected to 2.5-fold gradient dilution from the highest concentration of 30 μg/ml; the diluted antibodies were mixed with 15 ng/ml human TNFα-Biotin (Acro Biosystem, Cat #TNA-H82E3) in equal volume, respectively; the resulting mixture was added to the ELISA plate at 100 μl/well, and incubated with shaking at room temperature for 2.0 hours. The plate was washed, and then a Streptavidin-HRP working solution (diluted at 1:10000) was added at 100 μl/well, and the mixture was incubated with shaking at room temperature for 40 minutes. The plate was washed again, and then the substrate TMB of HRP was added to develop colour. A stop solution was added to stop the reaction, and then a microplate reader (MD 13) was used to read the absorbance value. The inhibitory curve of an antibody was drawn with antibody concentration as the abscissa and corresponding OD value as the ordinate, and fitted with four parameters (GraphPad Prism9) to calculate the IC50 value. The smaller the IC50 value, the stronger the ability of an antibody to inhibit the binding of human TNFα to human TNFR2. The blocking effect of a humanized antibody was normalized to its corresponding human-murine chimeric antibody WT. The higher the percentage value, the better the inhibitory effect of the humanized antibody.

[3] = biological target: T3, Human TNFR2-His (Sino 10417-H08H); experiment: ELISA, human TNFR2-His coated; EC50 against 219-WT
Protocol: The test humanized antibody against TNFR2 (as described in Example 1, the antibody was comprised of variable regions linked to IgG-Fc; the WT chimeric antibody also adopted the IgG-Fc structure) was subjected to 3.33-fold gradient dilution, loaded with 100 μl/well, and incubated with shaking at room temperature for 1.5 hours. The plate was washed, and then a working solution of murine anti-human IgG Fc-HRP (diluted at 1:10000) was added, loaded with 100 μl/well, and incubated with shaking at room temperature for 1.0 hour. The plate was washed again, and then the substrate TMB of HRP was added to develop colour. A stop solution was added to stop the reaction, and then a microplate reader (MD 13) was used to read the absorbance value. The binding curve of an antibody was drawn with antibody concentration as the abscissa and corresponding OD value as the ordinate, and fitted with four parameters (GraphPad Prism9) to calculate the EC50 value. The smaller the EC50 value, the stronger the binding ability of an antibody to human/cynomolgus monkey TNFR2. The binding effect of a humanized antibody was normalized to its corresponding human-murine chimeric antibody WT (see SEQ ID NOs: 38-43 for the sequence). The higher the percentage value, the better the binding effect of the humanized antibody. The results of binding of an anti-TNFR2 antibody to a human TNFR2 protein are shown in FIG. 1 and Table 4, and the results of binding of an anti-TNFR2 antibody to cynomolgus monkey TNFR2 are shown in FIG. 2 and Table 4.

| Binder | % Relative activity (WT antibody/test antibody) [1] | % Relative activity (WT antibody/test antibody) [2] | % Relative activity (WT antibody/test antibody) [3] |
| --- | --- | --- | --- |
| 001-Hu5 (antibody, V domains shown, Humanized form of #001; also called VH1 + VL4) VH: EVQLVESGGGLVQPGGSLRLSCAASGFAFSTYDLSWVRQAPGKGLEWVAYINNGGISTYYSDTVKGRFTISRDNAKNTLYLQMNSLRAEDTAVYYCVRGPFYGSANYFDYWGQGTLVTVSS VL: DIQMTQSPSSLSASVGDRVTITCRTSESIYSNLPWYQQKPGKSPKLLVYDATKLAEGVPSRFSGSGSGTDYTLTISSLQPEDFATYYCQHFWVTPWTFGQGTKVEIK | 93.1% | 96.5% |  |
| 001-Hu2 (antibody, V domains shown, Humanized form of #001; also called VH2 + VL2) VH: EVQLVESGGGLVQPGGSLRLSCAASGFAFSTYDLSWVRQAPGKGLEWVAYINNGGISTYYSDTVKGRFTISRDNAKNSLYLQMNSLRAEDTAVYYCVRGPFYGSANYFDYWGQGTLVTVSS VL: DIQMTQSPSSLSASVGDRVTITCRTSESIYSNLPWYQQKPGKSPKLLIYDATKLAEGVPSRFSGSGSGTDFTLTISSLQPEDFATYYCQHFWVTPWTFGQGTKVEIK | 95.8% | 82.8% |  |
| 001-Hu3 (antibody, V domains shown, Humanized form of #001; also called VH1 + VL3) VH: EVQLVESGGGLVQPGGSLRLSCAASGFAFSTYDLSWVRQAPGKGLEWVAYINNGGISTYYSDTVKGRFTISRDNAKNTLYLQMNSLRAEDTAVYYCVRGPFYGSANYFDYWGQGTLVTVSS VL: DIQMTQSPSSLSASVGDRVTITCRTSESIYSNLPWYQQKPGKAPKLLIYDATKLAEGVPSRFSGSGSGTDYTLTISSLQPEDFATYYCQHFWVTPWTFGQGTKVEIK | 97.8% | 105% |  |
| 001-Hu1 (antibody, V domains shown, Humanized form of #001; also called VH1 + VL1) VH: EVQLVESGGGLVQPGGSLRLSCAASGFAFSTYDLSWVRQAPGKGLEWVAYINNGGISTYYSDTVKGRFTISRDNAKNTLYLQMNSLRAEDTAVYYCVRGPFYGSANYFDYWGQGTLVTVSS VL: DIQMTQSPSSLSASVGDRVTITCRTSESIYSNLPWYQQKPGKAPKLLLYDATKLAEGVPSRFSGSGSGTDYTLTISSLQPEDFATYYCQHFWVTPWTFGQGTKVEIK | 97.4% | 94.7% |  |
| 001-Hu4 (antibody, V domains shown, Humanized form of #001; also called VH2 + VL4) VH: EVQLVESGGGLVQPGGSLRLSCAASGFAFSTYDLSWVRQAPGKGLEWVAYINNGGISTYYSDTVKGRFTISRDNAKNSLYLQMNSLRAEDTAVYYCVRGPFYGSANYFDYWGQGTLVTVSS VL: DIQMTQSPSSLSASVGDRVTITCRTSESIYSNLPWYQQKPGKSPKLLVYDATKLAEGVPSRFSGSGSGTDYTLTISSLQPEDFATYYCQHFWVTPWTFGQGTKVEIK | 93.7% | 105% |  |
| 219-Hu3 (antibody, V domains shown, also called VH5 + VL5) VH: QVQLVQSGAEVKKPGSSVKVSCKASGYSFTNYWMNWVRQAPGQGLEWMGMIHPSDTETRLNQNFKDRVTITADKSTSTAYMELSSLRSEDTAVYYCARGEGLGAARSVSMDYWGQGTLVTVSS VL: DIQMTQSPSSLSASVGDRVTITCRASQDISNYLNWYQQKPDGTVKLLIYYTAILHSGVPSRFSGSGSGTDYSLTISSLQPEDFATYFCQQGNTLPWTFGQGTKVEIK |  |  | 84.4% |
| 219-Hu1 (antibody, V domains shown, also called VH3 + VL5) VH: QVQLVQSGAEVKKPGASVKVSCKASGYSFTNYWMNWVRQAPGQRLEWMGMIHPSDTETRLNQNFKDRVTITRDTSASTAYMELSSLRSEDTAVYYCARGEGLGAARSVSMDYWGQGTLVTVSS VL: DIQMTQSPSSLSASVGDRVTITCRASQDISNYLNWYQQKPDGTVKLLIYYTAILHSGVPSRFSGSGSGTDYSLTISSLQPEDFATYFCQQGNTLPWTFGQGTKVEIK |  |  | 83.1% |
| 219-Hu2 (antibody, V domains shown, also called VH4 + VL5) VH: QVQLVQSGAEVKKPGSSVKVSCKASGYSFTNYWMNWVRQAPGQGLEWMGMIHPSDTETRLNQNFKDKATITADKSTSTAYMELSSLRSEDTAVYYCARGEGLGAARSVSMDYWGQGTLVTVSS VL: DIQMTQSPSSLSASVGDRVTITCRASQDISNYLNWYQQKPDGTVKLLIYYTAILHSGVPSRFSGSGSGTDYSLTISSLQPEDFATYFCQQGNTLPWTFGQGTKVEIK |  |  | 95.9% |
| 219-Hu5 (antibody, V domains shown, also called VH7 + VL5) VH: QVQLVQSGAEVKKPGSSVKVSCKASGYSFTNYWMNWVRQAPGQGLEWMGMIHPSDTETRLNQNFKDRVTITVDKSTSTAYMELSSLRSEDTAVYYCARGEGLGAARSVSMDYWGQGTLVTVSS VL: DIQMTQSPSSLSASVGDRVTITCRASQDISNYLNWYQQKPDGTVKLLIYYTAILHSGVPSRFSGSGSGTDYSLTISSLQPEDFATYFCQQGNTLPWTFGQGTKVEIK |  |  | 96.5% |
| 219-Hu4 (antibody, V domains shown, also called VH6 + VL5) VH: QVQLVQSGAEVKKPGSSVKVSCKASGYSFTNYWMNWVKQAPGQGLEWIGMIHPSDTETRLNQNFKDKATLTVDKSTSTAYMELSSLRSEDTAVYYCARGEGLGAARSVSMDYWGQGTLVTVSS VL: DIQMTQSPSSLSASVGDRVTITCRASQDISNYLNWYQQKPDGTVKLLIYYTAILHSGVPSRFSGSGSGTDYSLTISSLQPEDFATYFCQQGNTLPWTFGQGTKVEIK |  |  | 99.7% |

From patent US20240109974A1 (SHANDONG SIMCERE BIOPHARMACEUTICAL, published 2024)
